The domain aggregation screens of Martell et al. (2025)

Test: soluble fraction after stress (log2 fold change); higher = more stays soluble; pooled small domains, quantitative proteomics
Details: stress: pH 4
How it was run: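 High-throughput quantitative proteomics was run on pooled custom libraries of small protein domains following pH 4 stress. Fold changes are on a log2 scale; higher values mean more of a domain remained soluble. The fold change in soluble amount is taken as a measure of aggregation propensity.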

Sequence | soluble fraction (log2)
HMRTQEELVAEVREQMEAMGTIATLYVELYESSEERLVGGVIFEDERHYRFVYEDGLLHYEEEK | -1
HMRTRSDVKRAAIIQAAKDAFQEYGVNATSMDKLAEMASVSKRTVYNHFSAKEELVMHIVKE | 0.174
HMRTVPEALLGRAYETAETAIVLEGLEAKRTDVFHPTIGNGTVIRLEPASGSQVSAGGVIEIFVSKGTETI | -1.31
HMRVDYKTQLQELLQRQGAAAPQYRLLVEEGPAHLRRFQVGVYFQGRLLGTGWGRNKKEAEQEAARQALMP | 0.186
HMRVEEVGYGEFLQMAEERDLAEVQVTDTEIIFSDKDTPPNYYKTGRMDDPFLVDRLYSAGIRDFGE | -1.65
HMRVESVGDRIRRLRKSLGLTQVKLAQMLGIKAPSVVQWESDKTNLSGENLLNAAKLFGVTPDYILYGG | 0.233
HMRVLEYTADGSRLDVLLSQDGVLSRSRAAELIKGGAVTVDGRAEGKPSAKPAPGALVRVEVPE | ≥ 0.43
HMRVVGRNHYDDADLAHIRSVIQLEARPLNVSRIARTLANEYPKHTYWSYLSFLQKNLRDRPDLF | 0.419
HMRVVPEILERAVAVFEALGVDRLPSSTLADRLGYDSPEALADVLRPLGVRPKKYRDGKSTARGYLAADLG | -0.284
HMRYEESVTLGERLLNQSLVALKADNIDDALWERFLREEAGEKSRQEILSDIGLGKRLPVVVAKRLLAPS | -0.982
HMRYPLPYAFARSQQLLLEETDDGRYTLWMSSHPARSAVGEVSRKYGVQTFEVLADGPLAQRISAAYAQ | 0.0965
HMRYTAAEMAKKLDISRSYLYYLKEAGVVEIEKNENGKPIWTESVYNQLFEYIKKNHRTEEADNTQ | -0.61
HMSAAIGEAVIATDEINVRSGPGLSHEIVSVVSRNESYPILEERGDWVQIQLNGGQKGWVVSWLIKKKS | -0.268
HMSAAMTESVLDGIPGLGATRKAALLAHFGSVRKLRAATSEQVREVPGIGPRLAETILATLHEP | 0.0277
HMSAATGIINTDNVNIRSGPATTYDAVGRLNQGSSVEILSSRNDWYQIQANSLKGWVRNDLLNVQK | 0.0683
HMSADDLVSRTQAIVAELKDLEGPLLPILHSVQEAFGHVPDEVKPVIAEALNLSRAEVHGVVSFYHDFRAH | -0.571
HMSADIGAEKAKTIALNHAGVSASNAVFLHAKLDYDDGRRTYEVEFYSGSKEYDYEIDAATGEILSYDFD | 0.327
HMSAEAYLSFVKKENLRAAVVNYENNKEWLKDVPHERLLDLAVFAKVDMGEPGMSMKFNNWLLSR | -1.12
HMSAEKDGEWLTLTEAAKHLQVSPHVIRRLIQTGALPAEQVMRGAPHQIRAADLDTDRVKTMIAR | 0.228
HMSAEKPVKSELFYKSMLNSFEQAVRFMIANGILEDFKSRIVAINNETNHQNWFNKQEFNAIIERF | -0.032
HMSAERFDFRIGPELAGKRFDQALAEALPQFSRSRLSTWIKDGRATLNGATMRPKDSVHAGDTVVVNAE | 0.255
HMSAEVEVPDVVGRQVALAVQLIETKKLRVNVAETYDAKVPPGQVISQSPEAGMKVKEERVITIYVSR | 0.153
HMSAGISVADVTNRTYDEGYNTLTAQHLLVNKVYEANETIPLDTIIRTDPVAGTKVPDNTSITVYVSSGK | -0.025

Sequence | soluble fraction (log2)
HMSAGPQGRTPREDELTVGTKVYVSRVGASGVVSSDVSRGKVVVQVGALRLTAAVSELLLLDG | -0.472
HMSAGYTYQNYQQDLKSGNVQNIHIYLSEEMYSGNVKVIYKNNKSVTFTVTDVTIAEAEARQVGISPIIYE | -0.504
HMSAHDLQVVLRWIGTDEPMTDQRYRITTEDGRTFEGRTDDAGLTERVASTIPFGRYSIEALD | -1
HMSAIEIDAEKILNYLTDRGGKMPYGDTTAPEVIKDKFNISKAAFKRALGFLLRSNKIEQIDGWTYI | -0.375
HMSAIKSVTTQLDNTKLRTGPDVSYQYTQSYPANTKLTYINKSGTWYQVKDADGNTGYVASWVVTPSE | 0.387
HMSALIGAHTLERIDSRDFEGVVMAWLPKRDGYDSLYKIYHIEDGDFEELDDREVQAAISLFIEGT | -0.388
HMSAPAMTLDSIRSLLNDRDPWVVTQTVEWLVGLGPQVKTILETLTLESSDAARQAQNALDRINVRNYP | -1.08
HMSAPNPGQMHSWTDTQGRTLQATFIKADATTVTLNWNGRIVPIPLANLNAASQKLARELASAS | -0.0969
HMSAPRRGETTAASLNLRAGPATDADILAQLPERTPLRVLQEDGEWLRVETHGNEGFVHRQFVAIPGDEP | -0.347
HMSARRHAVKHLDANQLQTRVARMLSEFGLTAKVSKDPNSNALIIDGAPEAQRIAAQLITTIDKE | 0.063
HMSASSDATRQRVLRAAEQLFGAKGVENVSLREMTTLAGVNLAAVNYHFGSKDALAEAVFEALSER | 0.138
HMSASSEALKTAVRKVLLNNRMTQDRMARDAGLSGSALSQWLHGKYQGDVPALEGRLAAWLADTQAS | 0.132
HMSASSTAPGSVTLRGAILTAWTAAGGERSKMGLPVGYEVRQADGTVTQTFEKGRISVSPTGTATI | -0.0391
HMSAVNLNDDEKAVYKSIKSGIRSLDELSLRTGMKIYELMAITVSLEMKGLVTKSPDGTLDAT | -0.0308
HMSDAKKRAFSKDEILYSLKNRPFTSFDIESLFDDESKKTFIGLLDKGEISEKKVAGTIFYYLR | -0.461
HMSDEEAISKLPGVGPAILEKLKEAGYNDIMTIAVDSPKNLAELAEIGEPTAAKIIAAAKKAAD | -0.109
HMSDIDIDVENDRAALAIAGGKLNHLVGARGEVLDALQELTRLAVQTSLGERSRLMLDIDNFRSD | 0.0463
HMSDIHARIAAALAALTSPEKIHDLVVDDDGKVSFTFHLTREDPATLVRDARKAVQAVDGVRDVKVNVVDP | 0.00539
HMSDKEDIDKYLLTYGDLLFNRTNSSEWVGKTAIYRGEVSAIYAGYLIRIRSFLDAEYLNSVMNSKYA | -0.485
HMSDKTSLTDDDKALINSMLPDYDKYPSVAKLQAVEIAKSSSKMATLLMLDERYNETVSEALE | -1.14
HMSDLGEIEKIVDEVLAENITKVQEYKDGKKGLMGMFMGQIMKKSGGKADPKIANQLLTEKL | 0.138
HMSDNHYLLEIFLADLKSDEKFIRELAIFQLHHHIESDKVRAELKAAAETESDPYLKGMIESLLSSTS | -1.2
HMSDNYYSILGIETDATTDMIKRAYRRLSLELHPDRTKDNPILTEKYKKVNEAYGVLNDNDRKHIYDLQNI | -1.37

Sequence | soluble fraction (log2)
HMSDPELAIPRVVGLSGNDAQAALVKAGFSAVTVVTVKNSEVTSEQVTHVVPAEGAKAKASTPVTVVVSSS | 0.15
HMSDRQLKRQANILYTTRKLASKVGYDGLTMRGLAEASEVSPKTLYNLFSSKDELLAAALEDLVGIV | 0.0711
HMSDTFTITTESGRIDKIITAHETTHTRSQVQKWLQDGLVTVNGNPVKANFKVTAGDVVTVTIPEVK | -0.0373
HMSDTMTVTNVKYAIYLRSTPSEASDANIIMEIPVGSKVTYLDTPNNTFYKISYGGTVGYSKQIYLTF | -0.482
HMSDVLPEAILERRLVKKGNRAVPQVLIKWTKLPATSATWEDFYVLQQRFPTALAWGQAPSPGGQM | -0.213
HMSDVTPDVVRALRKRLKLTQVQFGEIFGMTSKKVSAWEHGKAEPTEEQKQKIQSLLKENNEQ | 0.141
HMSEATTVNYKYAVTISDLRIRKGPGTNYGSVGYTGKGVFTIVAEKGGWGKLKSGAGWISLNSKYGHKVS | -0.314
HMSEEAMVSNFRQQEILELARKDGKVTVDGLAELYDVTVQTIRRDLSDLADSGRLKRVHGGAVVPS | -0.465
HMSEFGENLKKLRTARDLTQQELGAKVGLSKAVVSKYENGLGYPTFDVLIRIAAYFGVTTDYLLGV | -0.309
HMSEFSDRFRLLKDESGATLKELSEQLDITVPNLSYYMKGREPSYDILIKIADYFGVTTDWLIGRTDER | -0.643
HMSEILQLINKIDKKLEKGYTFANISRNHYEKIYKEEILNLYKTSKLKGEAEDSIKEVLESLLGDLRKP | 0.368
HMSEISAEAGKRIRYFRKSRSMTLEELAAVIHKSKATLSKYETGEISIDLDTLYDLAVALQVRAEQLLPAS | -0.764
HMSEITMMQMEIPEGHNWENRLVKDVSMPTGSLAVMIKRHGETLIPGGDTRILAGDTIVLSVPAYESG | -1.03
HMSEIYVDDINRKILYLLSQGIKTKSLLEHIPLSMSGIEKRKKQLKMLFSVEDGKDETLLEMAKEKGF | -1.07
HMSEKAQSENEDLIKILALLIHAAKIDENYSEKEKKLIISFAEMSSNKKLDREQINSLVDKAEQYEK | -0.507
HMSEKLLTLNEISEKLRVSRHTVQAWVSPSSPNHRPEFSSLARHAGRKTVFLESDVDAWLAQRR | -0.385
HMSEKYPPIDWNNIKTGQSVLIKDINQVVSLTKLPDSKGFAEVQMGLIKTKIKAEKLAATDKKPNK | -0.0179
HMSELDSYIGARLRMRRLMLGMSQEALGEKLSLTFQQIQKYEKGTNRVSASRLYELAQVLDVPVQFFFDGA | -1.39
HMSENDTILAKFASIINNKSLELVIFPDTAYLKGQVSTPEDKARAETVAQSLLGSKPLISLIEFE | -0.167
HMSENPLTSREIEIVQLLANGKTTKSIAEELHLSNGTIRNYVSIVLDKLNVSNRIEAIRKALDKGWL | -0.0724
HMSEPQEISYSDFIEQVNRNEIRQVEFDGQHEYLTVIRKDTSRFKVIIPAPDPRLLDDLMEHDVEIVGKE | 0.0554
HMSEQYEQIQLALKTLTQDEQDIVRLVVVEGASLRTAGKNLGVSAMTIQRRLKRALARLRDLLAS | -0.858
HMSESKYKMIKNWIKSKILDGTLVPNQKIYSESELMEIFDVSRHTVRLAIGELVSEGYLFKRQGTGTFVTQ | -0.763
